In assay [1] the target is MOR-nLuc (rat µ opioid receptor, wild type, with C-terminal nLuc) (rat) (UniProt P33535).
Assay [2] deals with rat µ opioid receptor (MOR-wt) (rat) (UniProt P33535).
Assay [3] concerns the target MOR BRET sensor (G267-MOR sensor with mTurq2 replaced by nLuc2) (rat) (UniProt P33535).

With DAMGO (peptide), the EC50 of agonist-induced arrestin3 interaction with MOR-nLuc (BRET, with GRK2) in assay [1] was found to be 282 nM. In assay [2], this substance displayed an EC50 of Go activation (BRET-based activity sensor Go1-case) of 2.92 nM. The EC50 of the agonist-induced change of the BRET ratio of the MOR BRET conformation sensor in assay [3] came out at 445 nM.

These data come from PMC11806106.
